{
  "source": "a protein production outcome set (Wang et al. 2014)",
  "assay": "label from the status in PepcDB records",
  "data": [
    {"sequence": "MTMIKGYSEKVEKIYSKLRKTEEDNLKSRREEIKDKLPKIIKIDSEISRLCLKLSTNIFKKINNRDEYIKSLKNEITNLRMERSELLVSNGYPMDYLQMHYNCSKCKDTGYIGAHKCSCYKKYLVQLYYDNSDLKSLLNENNFENFNINYYSNRKSEDEPRTPRKNMEKILSLSLNYIKNFSDSNENLLFYGNSGTGKTFLSHCIAKDLLERGFLVIYKTSADLAQELKQLQFEPNPTLEDLIINCDLLIIDDLGTEQISAFSKTCFFNLINKKLLSQKKMLISSNYNLEELTRLYSERITSRLFGDFTLCKFYGDDIRINRNLKNKKI", "values": [
      {"measurement": "protein production", "value": "failed"}
    ]},
    {"sequence": "MTMPHAFSRQPATHRSGRFPRSRALLLASLLAAGLASLPAWAAAPATRTAQAAPEGSSRAAVQLEKSRPRGNLLATDRTDLPAVPLSEDIMYRVLASEVSLQRGLVEPAYRTYLGLAQDTRDPRFAQRATEIAFLTRSPSQALTAARLWVELAPTSMPARQVQQLLMVATGQWSEVEPMLQAQLNKVSPGQRAEAILQLQQQMSKSNDPAGAVSALQRLTTHDAQRPETHLALARAKVVAKDNTGALSELDTALKLRPGYEDAAILAAELRADSDPDAAISGLRTFLKAAPASIDGHLALARMYLVRNQNDQARAEFEALRKIAPTDPRIPLALGLLNLQQRQYDSAEQYLKEYVAQAAKSPSLSPEPGYQGLAQVAEEKRDYAGAITWLDKIAGASNGDGDGQVALAAGIKRAQLLGKLRRIDEAQQAFDELIADTEDVPDGPRRQALMDGIRQAEVGMLMDAKAYGRARARVNDLLRTSPDSVEYTYQLSMLEEHDGHYDNMETLLRKVIDLRPGQAIGYNALGYSLADRNIRLQEAQELLEKAVSLAPDDPYIADSLGWVKYRRGDLPAATDILRKAWAAAPQAEIGAHLGEVLWQSGKQDDARKVWTEAAKLDINDTTLRETLHRFSQPLPDAPTSAN", "values": [
      {"measurement": "protein production", "value": "failed"}
    ]},
    {"sequence": "MTMSLIAGVAAFVLTVLAMPHFITYYKIKKIGGQQMHEDVKQHLAKAGTPTMGGTVFLVVAILISLIFNFHVFTEGHPAYGATAGILFVILIYGIIGFLDDFLKIFHQINEGLKPWQKMALQIVAGLLFYFIHVLPSGTNSLAIGGLTIQLGVFYVLFVLFWIVGFSNAVNLTDGIDGLASVSVVISLIAYGIIAFVKGELAILTIIITMIGALLGFFVFNHKPAKVFMGDVGSLSLGAMLAVISIALRVEWTLLLIGVVYVLETASVMLQVSYFKYTKRKYGEGRRIFRMTPFHHHLELGGISGKGEKWSEWKVDAFLWTIGALASSITLWMVLGNVMK", "values": [
      {"measurement": "protein production", "value": "failed"}
    ]},
    {"sequence": "MTNDFKKEKKEDYFVNLKAISTEVLQEKVQDNAWVIVDTRLNDAYNGWKLDGVKRGGHIKGAVDFSANWLSVYSDRKDEVLEQALKTKRIDLDKNIVLYDANGKDALVVADYLSKKGYKYLYKYDIKQWADDENLPMERYKNYQMIVPLEHHHHHH", "values": [
      {"measurement": "protein production", "value": "not failed"}
    ]},
    {"sequence": "MTNGGGGMSSGEGFRRRSSGEGFPAREFRWWVSGDRVFPRGFFGEGVQVGVPTVVSGEGVPAKVPGGDFSGKKVPAVVFRRVSSSDGGGRGSGGGGGGGSGLGW", "values": [
      {"measurement": "protein production", "value": "failed"}
    ]},
    {"sequence": "MTNGKNPKEYSRQYVDEIAERADVVGYAPAIEYSFDRYTNNPVHEKIATIHDGEKLGDDAHVEVVVVDFFKKSDKGDKCYATKRTYAVIPDSDGDGTDALVYSGSLKSVSDIEEGYVTETDFTSKTVTYAKGDYAATELEHHHHHH", "values": [
      {"measurement": "protein production", "value": "failed"}
    ]},
    {"sequence": "MTNIQALFERIAPLYDRLNDQLSFGLHHVWKQMAVDWLELPQGATALDLCCGTGDLTRLLARRVGRQGRVVGLDFAAAPLAIARQRSDHYPQIEWLQGDALAVPFAPQTFQGITIGYGLRNVVDIPQALREMFRLLVPGGRAAILDFSHPQTSALEQFQQWYLQQWVVPTARHYGLAAEYDYLWPSIQAFPTPPTLCALIQQAGFERVKHYPLLGGLMAITVAQKLEHHHHHH", "values": [
      {"measurement": "protein production", "value": "failed"}
    ]},
    {"sequence": "MTNKGYFWVVASLVLASAAQVLMKSGMLALPSISMTHWPSLSTLMAGWPVVAVLVGIICYGLSMVCWFMVLRYLPLSRAYPLISLSYAVVYLAAVFLPWLNEPMSLRKNLGVLIILLGVWLVSRDAQATK", "values": [
      {"measurement": "protein production", "value": "failed"}
    ]},
    {"sequence": "MTNLGTAKNFWDATLYQDKHSFVWQYGEDLLQLLNPQPGEFILDLGCGTGQLTEKIAQSGAEVLGTDNAATMIEKARQNYPHLHFDVADARNFRVDKPLDAVFSNAMLHWVKEPEAAIASIHQALKSGGRFVAEFGGKGNIKYILEALYNALETLGIHNPQALNPWYFPSIGEYVNILEKQGFDVTYAALFNRPTTLAEGEFGMANWIQMFASAFLVGLTPDQQVQLIRKVEATLQDKLYHQESWTADYRRIRIVSIKAQ", "values": [
      {"measurement": "protein production", "value": "not failed"}
    ]},
    {"sequence": "MTNLRKILLIPALIVVSVSSFFSCGVDRWPEYAHLTELDTWMYDIMQQNYLWYQYMPGYDEVNLFQDPATFLSKAKWDKDSYSFVDSVLEAPLPTYGFDYSLVKSQDNDTAYNALITYVIPESPAEKAGLQRGDWIMKVDTSYISKKYETQLLQGTIARELSMGVWKEVEEEPEEGEEVPEEPVMVYKVVPNGVTLDLGAAQSIEDQPVHKYKILTLDNGAKVGYLMYNSFTAGTNNDPEKYNNELRKVSTIFQEANVQATILDLRYNEGGSLDCVQLLATILVPNARMGTPMAYLEYNDKNLDKDATINFDQEVLKTGVNLNQNTLVAITSGTTAGAAEMLLTSLYKEEQAPNIIVMGSASKGQTVATEQFINETYRWSVNPVVCTVYNSDHDAGEDAFVLVPSDKFKISETSINGTTDYSQFLPFGNPKERMLSIAIQTLEGTYPPKDEDKEEETRSTKSIKIEKSVSSPASRRFAGGLRIK", "values": [
      {"measurement": "protein production", "value": "failed"}
    ]},
    {"sequence": "MTNLVDKAAHSFATQNVVFQTLATASGKLVGVVTLNVEKALNALDLDMVRAMTVQLNLWKKDPLIACVVLDGSGEKAFCAGGDVRALYHASVAAKGQVTEVAKVFFEEEYRLDYLLHTYGKPVLVWGDGIVMGGGLGLMAGASHKVVTETSRIAMPEVTIGLYPDVGGSYFLNRMPGKMGLFLGLTAYHMNAADACYVGLADHYLNRDDKELMFDAMATLDWSDSPALNHQRLDTMINELSNQVDIPKGDSVLAESQEMIDRLMAGSLTDIVTRMSTLSTDEAWLSKACATMLAGSPISWHLAYIQTQLGTKLSLAQCFKWELTVSVNVCAKGDFCEGVRALLIDKDKQPKWQFADVQSVPNSVIEDILTSPWGEEHPLSQLS", "values": [
      {"measurement": "protein production", "value": "not failed"}
    ]},
    {"sequence": "MTNNQKLVGRHKRLAFMKVGTEGTYDRITGFTSLIEGKEAKEYARQYIDEATERTDVVGYATGIEYAFDRYTNNAVHEKIANITDDELLGVDAQVEIVSVDVFEEKAGGKYPARKRTYSVVPDTTGDGTDALIYSGNFKAVSEIVKGYCTTTDKWQTCTFVEGEIPAEALEHHHHHH", "values": [
      {"measurement": "protein production", "value": "not failed"}
    ]},
    {"sequence": "MTNPEATDKEGKNYALFIGDTVLVGEQSPASVMTPSKKKIKNVGIFIKDDSDEEDVDDKKTAKEDQGTEILGRSKRNAVLESKLRNEINTEEKRKEHQRELAQQLNERAKDRLARQGNSKEVEKVRKNTVSYKSISQMPREPEVKELKLYVDKKYETV", "values": [
      {"measurement": "protein production", "value": "failed"}
    ]},
    {"sequence": "MTNPETASDNSRDLVLVRRFDAPCDLVFRAWTDPKALAQWCGPHGFKAVGDRLEAWPGGRHRACLIAPDGEEHWVGGKYLEVEPPHRLVFTHAWETGAGETSPETIVTITLRESDGGTEMTFRQSGFASVSSLEGHESGWSQSFERLSSFLGTGSEGLNHA", "values": [
      {"measurement": "protein production", "value": "failed"}
    ]},
    {"sequence": "MTNQEQSGDGGRLAPRPVERPPVDPAAQRTFGRPAGVEGSFLGAGQYQDQGEYAPKDQPPDPVLAEAFGRPRGTSETLQRHPTDAGALEAERLGDEDVTDDPWRDPSAPVALGTPAQPPPPPVYVNAPTGKLGLREVLFGGRVSWIALLTLALVAVLIAFVGGWVGQKTAGTVQAFTTSKVTLETGDHPDPDAGRFEQVAAAVADSVVTIEAKSKTEGSQGSGVVVDGKGYIVTNNHVISEAATKPADFQITVVFNDGKEVPANLVGRDPKTDLAVLKVDNVDNLTVAKLGDSEKIRVGEEVIAAGAPLGLRSTVTHGIVSALHRPVPLSGDGSDTDTVIDGVQTDASINHGNSGGPLINMNAEVIGINTAGKSLSDSASGLGFAIPVNEVKEVVETLVKDGKVAHPTLLVNAVTVSNSVASGAQIKNVVENGPAGKAGMLENDVVVKVGDRKVADADEFVVAVRQLKIGQEAPIEVVRDGRPLTLMVTPIGDDQKAQ", "values": [
      {"measurement": "protein production", "value": "failed"}
    ]},
    {"sequence": "MTNQRTMVVGYDGSEESNLAVQWAAKHAILRDCSLHVVHCSLWVLLSHNRGPVPGVADSGLERAAQKVLEEGMALAKETVPDLEVRTTLLHGMPRDHLAHVSVGAEMLVLGSRGLGGFMGLLVGSVSLEMAATAECPVVVIRADDHPEGPVLLAVDDAGSPAALEDACDFAAATGADLMIVHVLHEPVGYRRLREPVEAYPEAEALLDSVLSQARHKAPGIAVTGELLVDASFSKAIVKASQGARITVLGTKGHGLIKGTIGSTAHAVLHHAHSPVLVSRRRATSEVA", "values": [
      {"measurement": "protein production", "value": "failed"}
    ]}
  ]
}
